Measurements taken from US20230212587A1, “Mutant Hydroxyphenylpyruvate Dioxygenase Polypeptide, Encoding Gene Thereof and Use Therefor” (Beijing Dabeinong Biotechnology Co., Ltd., priority 2019, published 2023).

System: Arabidopsis thaliana T1 plants
Experiment: Topramezone tolerance of transgenic Arabidopsis thaliana T1 plants (pesticide damage grade by bleached leaf area, score, resistance evaluation)
Assay type: in vivo
Set-up: score: scale not given here
Excerpt: The Arabidopsisthaliana T1 plants into which the AsHPPDm-F372A-02 nucleotide sequence was introduced, Arabidopsis thaliana T1 plants into which the AsHPPD-02 nucleotide sequence was introduced and wild-type Arabidopsisthaliana plants (18 days after sowing) were sprayed with topramezone at four different concentrations, i.e., 25 g ai/ha (one-fold field concentration, 1×), 50 g ai/ha (two-fold field concentration, 2×), 100 g ai/ha (four-fold field concentration, 4×) and 0 g ai/ha (water, 0×) to determine the tolerance of Arabidopsisthaliana to the herbicide. The degree of damage caused by the herbicide was measured for each plant according to the proportion of bleached leaf area (the proportion of bleached leaf area=bleached leaf area/total leaf area×100%) 7 days after spraying (7 DAT): the case where there is basically no bleached phenotype is defined as grade 0, the case where the proportion of bleached leaf area is less than 50% is defined as grade 1,the case where the proportion of bleached leaf area is more than 50% is defined as grade 2, and the case where the proportion of bleached leaf area is 100% grade is defined as grade 3.
(§1) According to the method as described above in point 6 of Example 1, the aforementioned Arabidopsisthaliana T1 plants and wild-type Arabidopsisthaliana plants (18 days after sowing) were sprayed with topramezone at three different concentrations respectively, i.e., 25 g ai/ha (one-fold field concentration, 1×), 100 g ai/ha (four-fold field concentration, 4×) and 0 g ai/ha(water, 0×) to detect the tolerance of Arabidopsisthaliana to the herbicide.
as §1, with “1x),” for “1×),”, “4x)” for “4×)”, “ai/ha (water, 0x)” for “ai/ha(water, 0×)”
According to the method as described above in point 6 of Example 1, the above-mentioned Arabidopsisthaliana T1 plants, Arabidopsisthaliana T1 plants into which the AsHPPD-02 nucleotide sequence was introduced, Arabidopsisthaliana T1 plants into which the PfHPPD-02 nucleotide sequence was introduced, and wild-type Arabidopsisthaliana plants (18 days after sowing) were sprayed with topramezone at four different concentrations respectively, that is, 25 g ai/ha (one-fold field concentration, 1x), 50 g ai/ha (two-fold field concentration, 2x), 100 g ai/ha (four-fold field concentration, 4x) and 0 g ai/ha (water, Ox) to detect the herbicide tolerance of Arabidopsisthaliana.
According to the method as described in point 6 of Example 1, the above-mentioned Arabidopsisthaliana T1 plants and wild-type Arabidopsisthaliana plants (18 days after sowing) were sprayed with topramezone at two different concentrations respectively, that is, 25 g ai/ha (one-fold field concentration, 1x) and 100 g ai/ha (four-fold field concentration, 4x) to detect the herbicide tolerance of Arabidopsisthaliana,. […]

[1] = Arabidopsis thaliana T1 plants sprayed with topramezone
[2] = topramezone 25 g ai/ha, mutation combination, Table 8
[3] = topramezone 100 g ai/ha, mutation combination, Table 8
[4] = topramezone 25 g ai/ha (1x), HPPD from Avena sativa source
[5] = topramezone 25 g ai/ha (1x), number of plants, HPPD from Avena sativa source
[6] = topramezone 50 g ai/ha (2x), HPPD from Avena sativa source
[7] = topramezone 50 g ai/ha (2x), number of plants, HPPD from Avena sativa source
[8] = topramezone 100 g ai/ha (4x), HPPD from Avena sativa source
[9] = topramezone 100 g ai/ha (4x), number of plants, HPPD from Avena sativa source
[10] = non-372 position mutants, number of plants (of 20) in this grade, topramezone 25 g ai/ha (1x)
[11] = non-372 position mutants, number of plants (of 20) in this grade, topramezone 100 g ai/ha (4x)
[12] = non-372 position mutants, score for pesticide damage 0-100, topramezone 25 g ai/ha (1x)
[13] = non-372 position mutants, score for pesticide damage 0-100, topramezone 100 g ai/ha (4x)
[14] = non-372 position mutants, topramezone 25 g ai/ha (1x)
[15] = non-372 position mutants, topramezone 100 g ai/ha (4x)

B1: PfHPPDm-G413W: Pseudomonas fluorescens HPPD with G336W (position 413 of SEQ ID NO: 1), SEQ ID NO: 418 (protein)
chain: MADLYENPMGLMGFEFIEFASPTPGTLEPIFEIMGFTKVATHRSKNVHLYRQGEINLILNNEPNSIASYFAAEHGPSVCGMAFRVKDSQKAYNRALELGAQPIHIDTGPMELNLPAIKGIGGAPLYLIDRFGEGSSIYDIDFVYLEGVERNPVGAGLKVIDHLTHNVYRGRMVYWANFYEKLFNFREARYFDIKGEYTGLTSKAMSAPDGMIRIPLNEESSKGAGQIEEFLMQFNGEGIQHVAFLTDDLVKTWDALKKIGMRFMTAPPDTYYEMLEGRLPDHGEPVDQLQARGILLDGSSVEGDKRLLLQIFSETLMGPVFFEFIQRKGDDGFGEWNFKALFESIERDQVRRGVLTAD
modifications: PfHPPDm-G413W Amino Acid Sequence
tolerance to topramezone, in words [1]: a certain tolerance to low concentration of topramezone | Grade 0 (number of plants) [2]: 2 | Grade 1 (number of plants) [2]: 18 | Grade 2 (number of plants) [2]: 0 | Grade 3 (number of plants) [2]: 0 | Resistance Grade [2]: Moderately resistant | score [2]: 30 | Grade 0 (number of plants) [3]: 0 | Grade 1 (number of plants) [3]: 0 | Grade 2 (number of plants) [3]: 10 | Grade 3 (number of plants) [3]: 10 | Resistance Grade [3]: Non-resistant | score [3]: 83

B2: AsHPPDm-A110: Avena sativa HPPD with deletion of alanine at position 110, SEQ ID NO: 414 (protein)
chain: MPPTPATATGAAAAAVTPEHAARSFPRVVRVNPRSDRFPVLSFHHVELWCADAASAAGRFSFALGAPLAARSDLSTGNSAHASLLLRSGALAFLFTAPYAPPPQEAATAATASIPSFSADAARTFAAAHGLAVRSVGVRVADAAEAFRVSVAGGARPAFAPADLGHGFGLAEVELYGDVVLRFVSYPDETDLPFLPGFERVSSPGAVDYGLTRFDHVVGNVPEMAPVIDYMKGFLGFHEFAEFTAEDVGTTESGLNSVVLANNSEAVLLPLNEPVHGTKRRSQIQTYLEYHGGPGVQHIALASNDVLRTLREMRARTPMGGFEFMAPPQAKYYEGVRRIAGDVLSEEQIKECQELGVLVDRDDQGVLLQIFTKPVGDRPTFFLEMIQRIGCMEKDEVGQEYQKGGCGGFGKGNFSELFKSIEDYEKSLEVKQSVVAQKS
modifications: AsHPPDm-A110 Amino Acid Sequence
tolerance to topramezone, in words [1]: a certain tolerance to low concentration of topramezone | Grade 0 (number of plants) [2]: 4 | Grade 1 (number of plants) [2]: 16 | Grade 2 (number of plants) [2]: 0 | Grade 3 (number of plants) [2]: 0 | Resistance Grade [2]: Moderately resistant | score [2]: 27 | Grade 0 (number of plants) [3]: 0 | Grade 1 (number of plants) [3]: 0 | Grade 2 (number of plants) [3]: 14 | Grade 3 (number of plants) [3]: 6 | Resistance Grade [3]: Non-resistant | score [3]: 77

B3: F372D (protein, listed as Avena sativa)
chain: MPPTPATATGAAAAAVTPEHAARSFPRVVRVNPRSDRFPVLSFHHVELWCADAASAAGRFSFALGAPLAARSDLSTGNSAHASLLLRSGALAFLFTAPYAPPPQEAATAAATASIPSFSADAARTFAAAHGLAVRSVGVRVADAAEAFRVSVAGGARPAFAPADLGHGFGLAEVELYGDVVLRFVSYPDETDLPFLPGFERVSSPGAVDYGLTRFDHVVGNVPEMAPVIDYMKGFLGFHEFAEFTAEDVGTTESGLNSVVLANNSEAVLLPLNEPVHGTKRRSQIQTYLEYHGGPGVQHIALASNDVLRTLREMRARTPMGGFEFMAPPQAKYYEGVRRIAGDVLSEEQIKECQELGVLVDRDDQGVLLQIDTKPVGDRPTFFLEMIQRIGCMEKDEVGQEYQKGGCGGFGKGNFSELFKSIEDYEKSLEVKQSVVAQKS
modifications: AsHPPD Amido Acid Sequence
tolerance to topramezone, in words (saturation mutation of HPPD from Avena sativa source (label F372X = AsHPPDm-F372X), topramezone 25, 50, 100 g ai/ha): better tolerance | Resistance Grade [4]: Highly resistant | score [4]: 7 | Grade 0 [5]: 16 | Grade 1 [5]: 4 | Grade 2 [5]: 0 | Grade 3 [5]: 0 | Resistance Grade [6]: Highly resistant | score [6]: 0 | Grade 0 [7]: 20 | Grade 1 [7]: 0 | Grade 2 [7]: 0 | Grade 3 [7]: 0 | Resistance Grade [8]: Highly resistant | score [8]: 0 | Grade 0 [9]: 20 | Grade 1 [9]: 0 | Grade 2 [9]: 0 | Grade 3 [9]: 0

B4: AsHPPDm-Q284A: Avena sativa HPPD mutant Q284A, SEQ ID NO: 420 (protein)
chain: MPPTPATATGAAAAAVTPEHAARSFPRVVRVNPRSDRFPVLSFHHVELWCADAASAAGRFSFALGAPLAARSDLSTGNSAHASLLLRSGALAFLFTAPYAPPPQEAATAAATASIPSFSADAARTFAAAHGLAVRSVGVRVADAAEAFRVSVAGGARPAFAPADLGHGFGLAEVELYGDVVLRFVSYPDETDLPFLPGFERVSSPGAVDYGLTRFDHVVGNVPEMAPVIDYMKGFLGFHEFAEFTAEDVGTTESGLNSVVLANNSEAVLLPLNEPVHGTKRRSAIQTYLEYHGGPGVQHIALASNDVLRTLREMRARTPMGGFEFMAPPQAKYYEGVRRIAGDVLSEEQIKECQELGVLVDRDDQGVLLQIFTKPVGDRPTFFLEMIQRIGCMEKDEVGQEYQKGGCGGFGKGNFSELFKSIEDYEKSLEVKQSVVAQKS
modifications: AsHPPDm-Q284A Amino Acid Sequence
tolerance to topramezone, in words [1]: no significant difference | Grade 0 [10]: 0 | Grade 1 [10]: 2 | Grade 2 [10]: 16 | Grade 3 [10]: 2 | Grade 0 [11]: 0 | Grade 1 [11]: 0 | Grade 2 [11]: 5 | Grade 3 [11]: 15 | score [12]: 67 | score [13]: 92 | Resistance Grade [14]: poorly resistant (poorly resistant plants (scores 34-67)) | Resistance Grade [15]: non-resistant (non-resistant plants (scores 68-100))

B5: AsHPPDm-L359W: Avena sativa HPPD mutant L359W, SEQ ID NO: 422 (protein)
chain: MPPTPATATGAAAAAVTPEHAARSFPRVVRVNPRSDRFPVLSFHHVELWCADAASAAGRFSFALGAPLAARSDLSTGNSAHASLLLRSGALAFLFTAPYAPPPQEAATAAATASIPSFSADAARTFAAAHGLAVRSVGVRVADAAEAFRVSVAGGARPAFAPADLGHGFGLAEVELYGDVVLRFVSYPDETDLPFLPGFERVSSPGAVDYGLTRFDHVVGNVPEMAPVIDYMKGFLGFHEFAEFTAEDVGTTESGLNSVVLANNSEAVLLPLNEPVHGTKRRSQIQTYLEYHGGPGVQHIALASNDVLRTLREMRARTPMGGFEFMAPPQAKYYEGVRRIAGDVLSEEQIKECQELGVWVDRDDQGVLLQIFTKPVGDRPTFFLEMIQRIGCMEKDEVGQEYQKGGCGGFGKGNFSELFKSIEDYEKSLEVKQSVVAQKS
modifications: AsHPPDm-L359W Amino Acid Sequence
tolerance to topramezone, in words [1]: no significant difference | Grade 0 [10]: 0 | Grade 1 [10]: 0 | Grade 2 [10]: 2 | Grade 3 [10]: 18 | Grade 0 [11]: 0 | Grade 1 [11]: 0 | Grade 2 [11]: 0 | Grade 3 [11]: 20 | score [12]: 97 | score [13]: 100 | Resistance Grade [14]: non-resistant (non-resistant plants (scores 68-100)) | Resistance Grade [15]: non-resistant (non-resistant plants (scores 68-100))
